This is an account of results in patent US9777309B2, “High throughput assay for monitoring AMP production and aminoacyl-tRNA synthetase activity” (Board of Supervisors of Louisiana State University and …, priority 2014, dated 2017).

Common to all, as to assay: purified protein, by the assay type
Substrate in data set [1]: N[C@@H](Cc1ccc(O)cc1)C(=O)O
To be noted: other: 10 mM MgATP, saturating tRNA^Tyr, 25° C., L-Tyr with cyclodityrosine synthase, D-Tyr with D-tyrosyl-tRNA deacylase, pH 7.78.

Substrate in data set [2]: N[C@H](Cc1ccc(O)cc1)C(=O)O
Conditions: other: 10 mM MgATP, saturating tRNA^Tyr, 25° C., L-Tyr with cyclodityrosine synthase, D-Tyr with D-tyrosyl-tRNA deacylase, pH 7.78.

Substrate in data set [3]: Nc1ncnc2c1ncn2[C@@H]1O[C@H](COP(=O)(O)O)[C@@H](O)[C@H]1O
Type of data set: biochemical, Saccharomyces cerevisiae. Conditions: other: pH 7.2, 2 mM ATP, 3 μM IMP dehydrogenase, 25° C., standard error in parenthesis.

B1: G. stearothermophilus tyrosyl-tRNA synthetase (Geobacillus stearothermophilus) (protein)
chain: MDLLAELQWRGLVNQTTDEDGLRKLLNEERVTLYCGFDPTADSLHIGHLATILTMRRFQQAGHRPIALVGGATGLIGDPSGKKSERTLNAKETVEAWSARIKEQLGRFLDFEADGNPAKIKNNYDWIGPLDVITFLRDVGKHFSVNYMMAKESVQSRIETGISFTEFSYMMLQAYDFLRLYETEGCRLQIGGSDQWGNITAGLELIRKTKGEARAFGLTIPLVTKADGTKFGKTESGTIWLDKEKTSPYEFYQFWINTDDRDVIRYLKYFTFLSKEEIEALEQELREAPEKRAAQKTLAEEVTKLVHGEEALRQAIRISEALFSGDIANLTAAEIEQGFKDVPSFVHEGGDVPLVELLVSAGISPSKRQAREDIQNGAIYVNGERLQDVGAILTAEHRLEGRFTVIRRGKKKYYLIRYA
As for B1, the Km in data set [1] is reported as 24 (±3) μM; in data set [2], 23 (±6) μM.

B2: AMP deaminase (Saccharomyces cerevisiae S288C) (protein)
chain: MDNQATQRLNDLSLEPAPSHDEQDGSGLVIDIDQRKIGDEQAGVVVDDETPPLEQQDSHESLAADSRNANFSYHENQQLLENGTKQLALDEHDSHSAILEQPSHSTNCSSSNIAAMNKGHDSADHASQNSGGKPRTLSASAQHILPETLKSFAGAPVVNKQVRTSASYKMGMLADDASQQFLDDPSSELIDLYSKVAECRNLRAKYQTISVQNDDQNPKNKPGWVVYPPPPKPSYNSDTKTVVPVTNKPDAEVFDFTKCEIPGEDPDWEFTLNDDDSYVVHRSGKTDELIAQIPTLRDYYLDLEKMISISSDGPAKSFAYRRLQYLEARWNLYYLLNEYQETSVSKRNPHRDFYNVRKVDTHVHHSACMNQKHLLRFIKHKLRHSKDEKVIFRDGKLLTLDEVFRSLHLTGYDLSIDTLDMHAHKDTFHRFDKFNLKYNPIGESRLREIFLKTNNYIKGTYLADITKQVIFDLENSKYQNCEYRISVYGRSLDEWDKLASWVIDNKVISHNVRWLVQIPRLYDIYKKTGIVQSFQDICKNLFQPLFEVTKNPQSHPKLHVFLQRVIGFDSVDDESKVDRRFHRKYPKPSLWEAPQNPPYSYYLYYLYSNVASLNQWRAKRGFNTLVLRPHCGEAGDPEHLVSAYLLAHGISHGILLRKVPFVQYLYYLDQVGIAMSPLSNNALFLTYDKNPFPRYFKRGLNVSLSTDDPLQFSYTREPLIEEYSVAAQIYKLSNVDMCELARNSVLQSGWEAQIKKHWIGKDFDKSGVEGNDVVRTNVPDIRINYRYDTLSTELELVNHFANFKRTIEEK
As for B2, in data set [3], the Km is given as 0.4 (±0.1) mM and the kcat is reported as 21 (±4) s^−1.
